# Measurements reported in paper PMC4825646, “MEC-10 and MEC-19 Reduce the Neurotoxicity of the MEC-4(d) DEG/ENaC Channel in Caenorhabditis elegans” (G3: Genes|Genomes|Genetics, 2016).
# B1: C-terminally EGFP-tagged MEC-4 (natural protein, C. elegans, UniProt P24612 1-768, looked up)
# chain: MSWMQNLKNYQHLRDPSEYMSQVYGDPLAYLQETTKFVTEREYYEDFGYGECFNSTESEVQCELITGEFDPKLLPYDKRLAWHFKEFCYKTSAHGIPMIGEAPNVYYRAVWVVLFLGCMIMLYLNAQSVLDKYNRNEKIVDIQLKFDTAPFPAITLCNLNPYKASLATSVDLVKRTLSAFDGAMGKAGGNKDHEEEREVVTEPPTTPAPTTKPARRRGKRDLSGAFFEPGFARCLCGSQGSSEQEDKDEEKEEELLETTTKKVFNINDADEEWDGMEEYDNEHYENYDVEATTGMNMMEECQSERTKFDEPTGFDDRCICAFDRSTHDAWPCFLNGTWETTECDTCNEHAFCTKDNKTAKGHRSPCICAPSRFCVAYNGKTPPIEIWTYLQGGTPTEDPNFLEAMGFQGMTDEVAIVTKAKENIMFAMATLSMQDRERLSTTKRELVHKCSFNGKACDIEADFLTHIDPAFGSCFTFNHNRTVNLTSIRAGPMYGLRMLVYVNASDYMPTTEATGVRLTIHDKEDFPFPDTFGYSAPTGYVSSFGLRLRKMSRLPAPYGDCVPDGKTSDYIYSNYEYSVEGCYRSCFQQLVLKECRCGDPRFPVPENARHCDAADPIARKCLDARMNDLGGLHGSFRCRCQQPCRQSIYSVTYSPAKWPSLSLQIQLGSCNGTAVECNKHYKENGAMVEVFYEQLNFEMLTESEAYGFVNLLADFGGQLGLWCGISFLTCCEFVFLFLETAYMSAEHNYSLYKKKKAEKAKKIASGSF
# notes: MEC-4, C. elegans DEG/ENaC protein, wild type; construct described in Chen et al. (2015); also called MEC-4::EGFP; source: Xenopus laevis oocytes, cRNA injected, on the oocyte surface; not shown: EGFP, C-terminal, kept
# Biological target: the molecule itself
# Assay: single-molecule photobleaching step counting (TIRF microscopy); MEC-4::EGFP on the Xenopus oocyte surface in the presence of MEC-19, 1-2 d after cRNA injection; observed bleaching steps compared with the binomial distribution predicted for trimers
protein,measurement,value
B1,stoichiometry N,3
